Experimental data taken from patent publication US20260043020A1, “BINDING MEMBERS WITH ALTERED DIVERSITY SCAFFOLD DOMAINS” (priority 2016, published 2026).

Biological target: rat TFR (rat) (UniProt Q99376)
Assay: cell-based or functional assay

## OX26-Fab
  % transcytosis after 6 h (in vitro rat BBB model): 0.2%
